US20230134571A1 (INTERNATIONAL AIDS VACCINE INITIATIVE, published 2023)

Key:
Assay in all cases: cell-based or functional assay
[1] = molecular target: HIV Env of isolate MS208.A1 (clade A) (HIV)
[2] = molecular target: HIV Env of isolate 6480.v4.c25 (clade CD) (HIV)
[3] = molecular target: HIV Env of isolate 6952.v1.c20 (clade CD) (HIV)
[4] = molecular target: HIV Env of isolate 3016.v5.c45 (clade D) (HIV)
[5] = molecular target: HIV Env of isolate A07412M1.vrc12 (clade D) (HIV)
[6] = molecular target: HIV Env of isolate P1981_C5_3 (clade G) (HIV)
[7] = molecular target: HIV Env of isolate 3103.v3.c10 (clade ACD) (HIV)
[8] = molecular target: HIV Env of isolate 928-28 (clade AG) (HIV)
[9] = molecular target: HIV Env of isolate T235-47 (clade AG) (HIV)
[10] = molecular target: HIV Env of isolate T263-8 (clade AG) (HIV)
[11] = molecular target: HIV Env of isolate 6240_08_TA5_4622 (clade B) (HIV)
[12] = molecular target: HIV Env of isolate 6244_13_B5_4576 (clade B) (HIV)
[13] = molecular target: HIV Env of isolate 1054_07_TC4_1499 (clade B) (HIV)
[14] = molecular target: HIV Env of isolate PVO.4 (clade B) (HIV)
[15] = molecular target: HIV Env of isolate RHPA4259.7 (clade B) (HIV)
[16] = molecular target: HIV Env of isolate 0330.v4.c3 (clade A) (HIV)
[17] = molecular target: HIV Env of isolate SC422661.8 (clade B) (HIV)
[18] = molecular target: HIV Env of isolate TRJO4551.58 (clade B) (HIV)
[19] = molecular target: HIV Env of isolate WITO4160.33 (clade B) (HIV)
[20] = molecular target: HIV Env of isolate CNE19 (clade BC) (HIV)
[21] = molecular target: HIV Env of isolate CNE30 (clade BC) (HIV)
[22] = molecular target: HIV Env of isolate CNE53 (clade BC) (HIV)
[23] = molecular target: HIV Env of isolate 7030102001E5(Rev-) (clade C) (HIV)
[24] = molecular target: HIV Env of isolate Ce703010054_2A2 (clade C) (HIV)
[25] = molecular target: HIV Env of isolate Ce704809221_1B3 (clade C) (HIV)
[26] = molecular target: HIV Env of isolate HIV-0013095-2.11 (clade C) (HIV)
[27] = molecular target: HIV Env of isolate ZM233M.PB6 (clade C) (HIV)

| Binder | IC50 (µg/ml) with constrains [1] [µg/mL] | IC80 (µg/ml) with constrains [1] [µg/mL] | IC50 (µg/ml) with constrains [2] [µg/mL] | IC50 (µg/ml) with constrains [3] [µg/mL] | IC50 (µg/ml) with constrains [4] [µg/mL] | IC50 (µg/ml) with constrains [5] [µg/mL] | IC50 (µg/ml) with constrains [6] [µg/mL] | IC50 (µg/ml) with constrains [7] [µg/mL] | IC80 (µg/ml) with constrains [7] [µg/mL] | IC50 (µg/ml) with constrains [8] [µg/mL] | IC80 (µg/ml) with constrains [8] [µg/mL] | IC50 (µg/ml) with constrains [9] [µg/mL] | IC80 (µg/ml) with constrains [9] [µg/mL] | IC50 (µg/ml) with constrains [10] [µg/mL] | IC50 (µg/ml) with constrains [11] [µg/mL] | IC50 (µg/ml) with constrains [12] [µg/mL] | IC50 (µg/ml) with constrains [13] [µg/mL] | IC50 (µg/ml) with constrains [14] [µg/mL] | IC50 (µg/ml) with constrains [15] [µg/mL] | IC50 (µg/ml) with constrains [16] [µg/mL] | other results |
| --- | --- | --- | --- | --- | --- | --- | --- | --- | --- | --- | --- | --- | --- | --- | --- | --- | --- | --- | --- | --- | --- |
| ePGDM13 (antibody, V domains shown) VH: QAQLVQSGPEVRKPGTSVKVSCKNPGNTLTTYDLHWVRQVPGQGLQWMGWISHEGDKKVIVERFKAKVTIDWDRSTNTAYLQLSGLTSEDTAVYYCAKGSKHRLRDYALYDEDGALNWAVDVDYLANLEFWGQGTAVTVSS VL: DIVLTQSPLSLSVTPGESASISCKSSHSLQHGDRNNYLAWYVQKPGRSPQLLLDLASERASGVPDRFSGSGSEKDFTLKISRVETEDVGTYYCMQGRESPWTFGQGTKVDIK | 0.027 | 0.109 | > 100 | 0.079 | > 100 | 0.029 | 0.319 | 0.09 | 0.36 | 0.019 | 0.077 | 0.005 | 0.019 | 0.025 | 3.16 | 30.8 | > 100 | 2.95 | 0.358 | 0.002 | IC80 (µg/ml) with constrains [16]: 0.008 µg/mL; IC50 (µg/ml) with constrains [17]: 1.56 µg/mL; IC50 (µg/ml) with constrains [18]: > 100 µg/mL; IC50 (µg/ml) with constrains [19]: 0.003 µg/mL; IC50 (µg/ml) with constrains [20]: 0.003 µg/mL; IC50 (µg/ml) with constrains [21]: > 100 µg/mL; IC50 (µg/ml) with constrains [22]: 0.015 µg/mL; IC50 (µg/ml) with constrains [23]: > 100 µg/mL; IC50 (µg/ml) with constrains [24]: 0.008 µg/mL; IC50 (µg/ml) with constrains [25]: 0.339 µg/mL; IC50 (µg/ml) with constrains [26]: > 100 µg/mL; IC50 (µg/ml) with constrains [27]: 0.001 µg/mL |
| ePGDM9 (antibody, V domains shown) VH: QAQLVQSGPEVRKPGTSVKVSCKNPGNTLTTYDLHWVRQVPGQGLQWMGWISHEGDKKVIVERFKAKVTIDWDRSTNTAYLQLSGLTSEDTAVYYCAKGSKHRLRDYALYDEDGALNWAVDVDYLANLEFWGQGTAVTVSS VL: DIVLTQSPLSLSVTPGESASISCKSSQSLIHGDRNNYLAWYVQKPGRSPQLLIDLASERASGVPDRFSGSGSRKDFTLKISRVETEDVGTYYCMQGRESPWTFGQGTKVDIK | 0.009 | 0.036 | > 100 | 0.052 | > 100 | 0.026 | 0.146 | 0.073 | 0.29 | 0.027 | 0.108 | 0.004 | 0.017 | 0.015 | 1.65 | 12.6 | > 100 | 1.93 | 0.145 | 0.003 | IC80 (µg/ml) with constrains [16]: 0.01 µg/mL; IC50 (µg/ml) with constrains [17]: 1.33 µg/mL; IC50 (µg/ml) with constrains [18]: > 100 µg/mL; IC50 (µg/ml) with constrains [19]: 0.002 µg/mL; IC50 (µg/ml) with constrains [20]: 0.003 µg/mL; IC50 (µg/ml) with constrains [21]: > 100 µg/mL; IC50 (µg/ml) with constrains [22]: 0.007 µg/mL; IC50 (µg/ml) with constrains [23]: > 100 µg/mL; IC50 (µg/ml) with constrains [24]: 0.008 µg/mL; IC50 (µg/ml) with constrains [25]: 0.135 µg/mL; IC50 (µg/ml) with constrains [26]: > 100 µg/mL; IC50 (µg/ml) with constrains [27]: 0.002 µg/mL |
| ePGDM5 (antibody, V domains shown) VH: QAQLVQSGPEVRKPGTSVKVSCKNPGNTLTTYDLHWVRQVPGQGLQWMGWISHEGDKKVIVERFKAKVTIDWDRSTNTAYLQLSGLTSEDTAVYYCAKGSKHRLRDYALYDEDGALNWAVDVDYLANLEFWGQGTAVTVSS VL: DFVLTQSPLSLSVTPGESASISCKSDHSLQHGDRNNYLAWYVQKPGRSPQLLIDLASERASGVPDRFSGSGSRKDFTLKIDRVEAEDVGTYYCMQGRESPWTFGQGTKVDIK | 0.007 | 0.029 | > 100 | 0.033 | > 100 | 0.009 | 0.295 | 0.063 | 0.254 | 0.031 | 0.125 | 0.005 | 0.022 | 0.019 | 2.02 | 18.9 | > 100 | 1.39 | 0.464 | 0.003 | IC80 (µg/ml) with constrains [16]: 0.01 µg/mL; IC50 (µg/ml) with constrains [17]: 1.33 µg/mL; IC50 (µg/ml) with constrains [18]: > 100 µg/mL; IC50 (µg/ml) with constrains [19]: 0.004 µg/mL; IC50 (µg/ml) with constrains [20]: 0.003 µg/mL; IC50 (µg/ml) with constrains [21]: > 100 µg/mL; IC50 (µg/ml) with constrains [22]: 0.02 µg/mL; IC50 (µg/ml) with constrains [23]: > 100 µg/mL; IC50 (µg/ml) with constrains [24]: 0.008 µg/mL; IC50 (µg/ml) with constrains [25]: 0.187 µg/mL; IC50 (µg/ml) with constrains [26]: > 100 µg/mL; IC50 (µg/ml) with constrains [27]: 0.002 µg/mL |
